Measured values reported in patent US20260218140.

Molecular target: T1, 5-270 TNA polymerase (synthetic construct (chimera of Thermococcus/Pyrococcus B-family polymerases)) (UniProt P56689)
T1 sequence: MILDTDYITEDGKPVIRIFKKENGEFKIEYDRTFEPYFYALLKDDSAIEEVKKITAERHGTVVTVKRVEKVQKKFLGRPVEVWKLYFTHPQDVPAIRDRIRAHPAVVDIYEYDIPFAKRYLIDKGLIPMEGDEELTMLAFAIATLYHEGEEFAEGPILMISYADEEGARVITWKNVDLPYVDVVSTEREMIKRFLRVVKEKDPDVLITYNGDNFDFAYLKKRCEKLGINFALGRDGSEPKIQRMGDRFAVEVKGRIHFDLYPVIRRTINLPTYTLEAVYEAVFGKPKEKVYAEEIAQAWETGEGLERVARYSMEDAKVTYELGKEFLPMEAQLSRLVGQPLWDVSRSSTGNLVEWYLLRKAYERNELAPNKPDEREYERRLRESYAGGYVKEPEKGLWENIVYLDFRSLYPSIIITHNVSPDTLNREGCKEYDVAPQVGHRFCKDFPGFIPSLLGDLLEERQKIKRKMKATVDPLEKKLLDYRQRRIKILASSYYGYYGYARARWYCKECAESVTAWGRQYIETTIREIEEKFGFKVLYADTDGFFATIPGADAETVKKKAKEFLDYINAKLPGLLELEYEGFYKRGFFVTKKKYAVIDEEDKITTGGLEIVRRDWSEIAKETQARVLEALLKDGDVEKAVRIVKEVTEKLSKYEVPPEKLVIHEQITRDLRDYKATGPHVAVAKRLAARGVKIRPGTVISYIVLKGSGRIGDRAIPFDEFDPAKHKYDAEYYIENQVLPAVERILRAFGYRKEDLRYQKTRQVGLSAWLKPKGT
Conditions: TNA primer extension; ~2-fold figure is from text on the clone screen

In the case of “GTCCCCTTGGGGATACCACC / TCGTTCTCGGACGGAGAGATATTGAANGGTGGTATCCCCAAGGGGAC [PBS8 primer / L30.5 random library template]”, the binding signal (fold vs Kod-RSGA) is reported as 2.
